Earlier results as cited in article PMC9709720, “An orally available small molecule that targets soluble TNF to deliver anti-TNF biologic-like efficacy in rheumatoid arthritis” (Frontiers in Pharmacology, 2022).

Tested on: free soluble TNF in human synovial tissue
Set-up: method as in Tani et al. (2013)
Conditions: one third of reported steady state concentration, synovial fluid; ref Tani et al. (2013)

Row | Substance | Css^f used in model [nM]
1 | etanercept | 2.2
2 | infliximab | 17
